This passage reports activity results from patent publication US20140087436.

Numbering of substitutions follows the chain as printed.

Holding throughout (experiment): cell_activity
Series [1] has as its target T1, CbbR A167V (Ralstonia eutropha) (UniProt P42722).
T1 sequence: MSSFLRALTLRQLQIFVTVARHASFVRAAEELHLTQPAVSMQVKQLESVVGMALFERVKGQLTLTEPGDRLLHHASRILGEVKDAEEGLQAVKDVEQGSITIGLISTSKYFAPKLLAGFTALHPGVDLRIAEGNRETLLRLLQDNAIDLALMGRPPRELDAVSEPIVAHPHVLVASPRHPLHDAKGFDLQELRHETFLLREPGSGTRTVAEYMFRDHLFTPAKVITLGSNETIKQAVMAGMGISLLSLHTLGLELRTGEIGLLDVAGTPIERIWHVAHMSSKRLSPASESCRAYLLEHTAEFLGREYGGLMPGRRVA
The conditions noted are these: beta-galactosidase, chemoheterotrophic; chemoautotrophic 7373.

The target in series [2] is T2, CbbR E87K (Ralstonia eutropha) (UniProt P42722).
T2 sequence: T1 sequence with E87K, V167A
The conditions noted are these: beta-galactosidase, chemoheterotrophic; chemoautotrophic 5515.

In series [3] the target is T3, CbbR G125D (Ralstonia eutropha) (UniProt P42722).
T3 sequence: T1 sequence with G125D, V167A
The conditions noted are these: beta-galactosidase, chemoheterotrophic; chemoautotrophic 6777.

The target in series [4] is T4, CbbR G125S/V265M (Ralstonia eutropha) (UniProt P42722).
T4 sequence: T1 sequence with G125S, V167A, V265M
The conditions noted are these: beta-galactosidase, chemoheterotrophic; chemoautotrophic 6770.

Series [5] concerns the target T5, CbbR G205D/R283H (Ralstonia eutropha) (UniProt P42722).
T5 sequence: T1 sequence with V167A, G205D, R283H
The conditions noted are these: beta-galactosidase, chemoheterotrophic; chemoautotrophic 4480.

Series [6] concerns the target T6, CbbR L79F (Ralstonia eutropha) (UniProt P42722).
T6 sequence: T1 sequence with L79F, V167A
As to conditions: beta-galactosidase, chemoheterotrophic; chemoautotrophic 6840.

The target in series [7] is T7, CbbR P269S/T299I (Ralstonia eutropha) (UniProt P42722).
T7 sequence: T1 sequence with V167A, P269S, T299I
As to conditions: beta-galactosidase, chemoheterotrophic; chemoautotrophic 3879.

The target of series [8] is T8, CbbR T232A (Ralstonia eutropha) (UniProt P42722).
T8 sequence: T1 sequence with V167A, T232A
The conditions noted are these: beta-galactosidase, chemoheterotrophic; chemoautotrophic 5269.

As to cbb promoter in lacZ reporter strain, the activity in series [1] was 768 nmol/min/mg; in series [2], 1600 nmol/min/mg; in series [3] it was 108 nmol/min/mg; in series [4] it was 53 nmol/min/mg; in series [5] it was 2310 nmol/min/mg; in series [6] it was 218 nmol/min/mg. For the same substance, the activity in series [7] amounted to 617 nmol/min/mg; in series [8] it was 212 nmol/min/mg.
